Consider 8 molecules from patent US20060240015A1 (Kyowa Kirin, published 2006).

The target in assay [1] is T1, human insulin-like growth factor-II (human, UniProt P01344 25-91).
T1 construct: also called hIGF-II; IGF-II
Description: SPR (Biacore 2000), hIGF-II amine-coupled on CM-5, antibody as analyte, 25 C. On the procedure:
(§1) For diluting samples and as reaction buffers in measurement, HBS-EP (10 mM HEPES, 150 mM NaCl, 3 mM EDTA, 0.005% Tween 20 pH 7.4) (manufactured by Biacore) was used.
(§2) Using an amine coupling kit (manufactured by Biacore), recombinant hIGF-I (manufactured by Fujisawa Pharmaceutical Co., Ltd.) and hIGF-II (manufactured by R & D) were immobilized at 18.5 pg/mm² or 26.7 pg/mm², respectively, on sensor tip CM-5 (manufactured by Biacore). After various antibodies which were diluted 5 steps in 2-fold serial dilutions as analytes added at a flow of 5 μl/minute for 4 minutes to observe a binding reaction, the dissociation reaction was subsequently observed over 5 minutes. After the dissociation reaction, 5 μl of 30 mM hydrochloric acid was added once, to regenerate the sensor chip surface. The reaction was done at 25° C. Based on the reaction curves at various concentrations, the binding constant Kass and dissociation constant Kdiss were calculated, to calculate the binding constants KA (M⁻¹) of these various antibodies.

Assay [2] has as its target T2, human insulin-like growth factor-I (human, UniProt P05019 49-118).
T2 construct: mature; In the ELISAs it was coated as a conjugate with methylated BSA; in Biacore it was amine-coupled to a CM-5 chip; also called hIGF-I; IGF-I
Description: SPR (Biacore 2000), hIGF-I amine-coupled on CM-5, antibody as analyte, 25 C. As for the experimental part: as §1, §2
A general note: SPR reads the build-up and loss of mass on a sensor chip optically.

Assay [3] deals with T2, human insulin-like growth factor-I. Nature of the assay: SPR (Biacore 2000).
Assay [4] deals with T1, human insulin-like growth factor-II. Description: SPR (Biacore 2000).
In assay [5] the target is T2, human insulin-like growth factor-I. Description: binding ELISA on coated mBSA-hIGF-I. On the procedure: A conjugate of hIGF-I (manufactured by Fujisawa Co., Ltd.) with methylated BSA (manufactured by SIGMA) was prepared and used as an antigen to be immobilized on an ELISA plate. That is, methylated BSA dissolved in distilled water was mixed with hIGF to a ratio of methylated BSA:hIGF-I=1:8 (weight ratio) at 4° C. The resulting mixture was agitated with a vortex mixer for 10 seconds, to obtain a conjugate of hIGF-I with methylated BSA (hereinafter referred to as mBSA-hIGF-I).
The above mBSA-hIGF-I was dispensed at 50 μl/well on a 96-well ELISA plate (manufactured by Greiner) to give a hIGF-I concentration of 20 ng/ml and then left overnight at 4° C. for immobilization. After washing with PBS, PBS containing 1% BSA (hereinafter referred to as BSA-PBS) was dispensed in 100 μl/well to react at room temperature for 1 hour to carry out blocking of the remaining active groups. Discarding BSA-PBS, the culture supernatant of each of the various transformants or each of various purified hIGF CDR-grafted antibodies was dispensed at 50 μl/well to react at room temperature for 2 hours. After the reaction, each well was washed with PBS containing 0.05% Tween 20 (hereinafter referred to as Tween-PBS). Then, HRP-labeled anti-human IgG antibody (manufactured by American Qualex) in 2000-fold dilution was dispensed at 50 μl/well as a secondary antibody to react at room temperature for 1 hour.

T1 sequence (P01344 25-91 limits assumed): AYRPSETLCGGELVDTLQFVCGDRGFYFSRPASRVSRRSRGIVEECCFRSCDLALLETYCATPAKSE
T2 sequence (P05019 49-118): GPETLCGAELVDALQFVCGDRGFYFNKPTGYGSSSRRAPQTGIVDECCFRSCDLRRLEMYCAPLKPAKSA

B1: anti-hIGF human chimeric antibody KM3002 (antibody, human IgG1, V domains shown)
VH: EVHLVESGGGLVQPGRSLKLSCAASGFTFSNYYMTWVRQAPTKGLEWVAYISSGGGSTYYRDSVKGRFTISRDNAKSTLYLQMDSLRSEDTATYYCTTEDYGYWFAYWGQGTLVTVSS
VL: EIVLTQSPTTMAASPGEKVTITCRASSSVSYMHWFQQKSGTSPKPWIYGTSKLASGVPDRFSGSGSGTSYSLTISSMEAEDAATYYCLQRSSYPPTFGAGTKLELK
notes: V regions of KM1468 on human IgG1, kappa constant regions (vector pKANTEX93); also called anti-hIGF chimeric antibody KM3002
Regarding B1, the figures for the Ka in assay [1] and in assay [2] were 2.24e+09 M⁻¹ and 2.94e+09 M⁻¹, respectively.

B2: anti-hIGF CDR-grafted antibody QGAR/NYPLL3A11 (antibody, V domains shown)
VH: EVQLVESGGGVVQPGRSLRLSCAASGFTFSNYYMTWVRQAPTKGLEWVAYISSGGGSTYYRDSVKGRFTISRDNSKNTLYLQMNSLRAEDTAVYYCTTEDYGYWFAYWGQGTLVTVSS
VL: DIVMTQSPDSLAVSLGERATITCRASSSVSYMHWFQQKPGQSPKPWIYGTSKLASGVPDRFSGSGSGTSYSLTISSLQAEDAATYYCLQRSSYPPTFGQGTKVEIK
notes: Human IgG1, kappa (pKANTEX93)
Consider B2, for which the figures for the Ka in assay [1] and in assay [2] were 3.96e+09 M⁻¹ and 2.32e+09 M⁻¹, respectively. In addition, the “KA relative to CamHV0/LV0 (fold)” value is roughly 14 fold in assay [3] and roughly 10 fold in assay [4].

B3: anti-hIGF CDR-grafted antibody CamHV0/LV0 (antibody, human IgG1, V domains shown)
VH: QVQLVESGGGVVQPGRSLRLSCAASGFTFSNYYMTWVRQAPGKGLEWVAYISSGGGSTYYRDSVKGRFTISRDNSKNTLYLQMNSLRAEDTAVYYCAREDYGYWFAYWGQGTLVTVSS
VL: DIVMTQSPDSLAVSLGERATINCRASSSVSYMHWYQQKPGQPPKLLIYGTSKLASGVPDRFSGSGSGTDFTLTISSLQAEDVAVYYCLQRSSYPPTFGQGTKVEIK
notes: Human IgG1, kappa (pKANTEX93); also called CmaHV0/LV0
B3: the Ka in assay [1] was 3.9e+08 M⁻¹; in assay [2] it was 1.7e+08 M⁻¹. Besides, the “KA relative to KM3002 (fold)” value was roughly 0.059 fold in assay [3] and roughly 0.167 fold in assay [4]. The “binding activity relative to KM3002 (fold)” value in assay [5] is roughly 0.02 fold.

B4: anti-hIGF CDR-grafted antibody QGAR/LV0 (antibody, human IgG1, V domains shown)
VH: EVQLVESGGGVVQPGRSLRLSCAASGFTFSNYYMTWVRQAPTKGLEWVAYISSGGGSTYYRDSVKGRFTISRDNSKNTLYLQMNSLRAEDTAVYYCTTEDYGYWFAYWGQGTLVTVSS
VL: DIVMTQSPDSLAVSLGERATINCRASSSVSYMHWYQQKPGQPPKLLIYGTSKLASGVPDRFSGSGSGTDFTLTISSLQAEDVAVYYCLQRSSYPPTFGQGTKVEIK
notes: Human IgG1, kappa (pKANTEX93)
Turning to B4, the Ka was determined as 1.75e+09 M⁻¹ in assay [1] and 7.8e+08 M⁻¹ in assay [2]. Moreover, the “KA relative to CamHV0/LV0 (fold)” value in assay [3] and in assay [4] was roughly 5 fold each time. Besides, the “binding activity relative to CamHV0/LV0 (fold)” value in assay [5] is roughly 25 fold. Besides, the “binding activity relative to KM3002 (fold)” value in assay [5] was roughly 0.5 fold.

B5: anti-hIGF CDR-grafted antibody CamHV0/NYPLL3A11 (antibody, human IgG1, V domains shown)
VH: QVQLVESGGGVVQPGRSLRLSCAASGFTFSNYYMTWVRQAPGKGLEWVAYISSGGGSTYYRDSVKGRFTISRDNSKNTLYLQMNSLRAEDTAVYYCAREDYGYWFAYWGQGTLVTVSS
VL: DIVMTQSPDSLAVSLGERATITCRASSSVSYMHWFQQKPGQSPKPWIYGTSKLASGVPDRFSGSGSGTSYSLTISSLQAEDAATYYCLQRSSYPPTFGQGTKVEIK
Consider B5, for which the Ka came out at 2.1e+09 M⁻¹ in assay [1] and 1.32e+09 M⁻¹ in assay [2]. Further, the “KA relative to CamHV0/LV0 (fold)” value was roughly 8 fold in assay [3] and roughly 5 fold in assay [4]. Also, the “binding activity relative to CamHV0/LV0 (fold)” value in assay [5] is roughly 25 fold. The “binding activity relative to KM3002 (fold)” value in assay [5] was roughly 0.5 fold.

B6: anti-hIGF CDR-grafted antibody QGAR/PLDFT (antibody, human IgG1, V domains shown)
VH: EVQLVESGGGVVQPGRSLRLSCAASGFTFSNYYMTWVRQAPTKGLEWVAYISSGGGSTYYRDSVKGRFTISRDNSKNTLYLQMNSLRAEDTAVYYCTTEDYGYWFAYWGQGTLVTVSS
VL: DIVMTQSPDSLAVSLGERATINCRASSSVSYMHWYQQKPGQSPKPLIYGTSKLASGVPDRFSGSGSGTSYSLTISSLQAEDVAVYYCLQRSSYPPTFGQGTKVEIK
notes: Human IgG1, kappa (pKANTEX93)
On to B6, for which the Ka was found to be 4.02e+09 M⁻¹ in assay [1] and 2.31e+09 M⁻¹ in assay [2].

B7: anti-hIGF CDR-grafted antibody QAR/LV0 (antibody, human IgG1, V domains shown)
VH: EVQLVESGGGVVQPGRSLRLSCAASGFTFSNYYMTWVRQAPGKGLEWVAYISSGGGSTYYRDSVKGRFTISRDNSKNTLYLQMNSLRAEDTAVYYCTTEDYGYWFAYWGQGTLVTVSS
VL: DIVMTQSPDSLAVSLGERATINCRASSSVSYMHWYQQKPGQPPKLLIYGTSKLASGVPDRFSGSGSGTDFTLTISSLQAEDVAVYYCLQRSSYPPTFGQGTKVEIK
notes: Human IgG1, kappa (pKANTEX93); also called QAV/LV0
As for B7, the Ka was found to be 4.5e+08 M⁻¹ in assay [1] and 1.7e+08 M⁻¹ in assay [2].

B8: anti-hIGF CDR-grafted antibody QGAR/PLLDFT (antibody, human IgG1, V domains shown)
VH: EVQLVESGGGVVQPGRSLRLSCAASGFTFSNYYMTWVRQAPTKGLEWVAYISSGGGSTYYRDSVKGRFTISRDNSKNTLYLQMNSLRAEDTAVYYCTTEDYGYWFAYWGQGTLVTVSS
VL: DIVMTQSPDSLAVSLGERATINCRASSSVSYMHWYQQKPGQSPKPWIYGTSKLASGVPDRFSGSGSGTSYSLTISSLQAEDVAVYYCLQRSSYPPTFGQGTKVEIK
notes: Human IgG1, kappa (pKANTEX93)
In the case of B8, the Ka amounted to 3.52e+09 M⁻¹ in assay [1] and 2.78e+09 M⁻¹ in assay [2].
